Measured values as given in patent US6576442 (SUGEN, dated 2003).

Molecular target: T1, PYK-NN (PYK2 aa 2-285) fused to the LexA DNA binding domain (UniProt P0A7C2 1-202; Q14289 2-285)
T1 construct: Yeast two-hybrid bait
Test: yeast two-hybrid with heterologous baits
Method: The yeast strain L40 containing the reporter genes HIS3 and β-gal under control of upstream LexA-binding site, was used as a host for the two-hybrid screening. […] Yeast strain that express the LexA-PYKN fusion protein was transfected with human brain cDNA library (Clontech #HL404AB) fused to GAL4 transcriptional activation domain. Transformants were plated on agar selection medium lacking Uracil (Ura-), Tryptophane (Trp-), Leucine (Leu-) and Histidine (His-). Resulting colonies were isolated and retested for growth on -Ura-Trp-Leu-His plates and for β-galactosidase activity. Plasmid DNA was purified from colonies that were His+, β-gal+ and used for retransformation of yeast strains expressing heterologous baits to determine the specificity of the interaction.
The yeast two-hybrid system was used to identify proteins that interact with the amino-terminal domain of PYK2. The N-terminal domain of PYK2 was fused to the LexA DNA binding domain and screened a human brain cDNA library. […] The specificity of the interaction was further determined by transformation of this clone into a yeast strain expressing heterologous baits. An interaction was detected in yeast strain expressing either the PYK-N terminal domain, or a shorter version of PYK-N that was missing 48 amino acids from its C-terminal end.

T1 sequence (P0A7C2 other isoform, or with tags, fused parts or gaps limits assumed): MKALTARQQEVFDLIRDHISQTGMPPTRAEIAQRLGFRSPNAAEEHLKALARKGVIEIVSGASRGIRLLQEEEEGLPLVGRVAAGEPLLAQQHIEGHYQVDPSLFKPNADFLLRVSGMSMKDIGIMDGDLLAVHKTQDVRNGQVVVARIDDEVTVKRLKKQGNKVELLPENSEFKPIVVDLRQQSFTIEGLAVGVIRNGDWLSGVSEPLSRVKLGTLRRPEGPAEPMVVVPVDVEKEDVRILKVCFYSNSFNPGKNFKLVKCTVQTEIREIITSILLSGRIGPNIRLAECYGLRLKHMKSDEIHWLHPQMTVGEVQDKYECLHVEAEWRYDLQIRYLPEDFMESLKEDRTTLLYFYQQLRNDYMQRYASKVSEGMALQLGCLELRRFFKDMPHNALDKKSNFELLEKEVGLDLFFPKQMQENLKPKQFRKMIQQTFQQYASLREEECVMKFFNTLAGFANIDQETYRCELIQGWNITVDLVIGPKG

B1: original two hybrid clone containing amino acids 627-975 of hrdgB1, fused to the GAL4 transcriptional activation domain (other, not shown: large carriers)
chain: VKLRNVTANHRANDVIAAEDGPQVLVGRFMYGPLDMVALTGEKVDILVMAEPSSGRWVHLDTEITNSSGRITYNVPRPRRLGVGVYPVKMVVRGDQTCAMSYLTVLPRGMECVVFSIDGSFAASVSIMGSDPKVRPGAVDVVRHWQDLGYMILYITGRPDMQKQRVVSWLSQHNFPQGMIFFSDGLVHDPLRQKAIFLRNLMQECFIKISAAYGSTKDISVYSVLGLPASQIFIVGRPTKKYQTQCQFLSEGYAAHLAVLEASHRSRPKKNNSRMILRKGSFGLHAQPEFLRKRNHLRRTMSVQQPDPPAANPKPERAQSQPESDKDHERPLPALSWARGPPKFESVP
notes: The printed end may count the stop codon; also called GAL10-rdgB1
binding result: no binding
